{
  "source": "paper PMC4063175",
  "target": "Src13-GCN4-eGFP/mCherry",
  "experiment": "PIE-FCCS",
  "data": [
    {"substance": "Src13-GCN4-eGFP/mCherry", "values": [
      {"measurement": "fc (fraction correlated), mean", "result": 0.25},
      {"measurement": "fc (fraction correlated), median", "result": 0.23}
    ]}
  ]
}
